Sequences and labels used below:
B1: VHH 1D01 (VHH, not shown: small tags and cut ends)
VHH: EVQLVESGGGLVQAGGSLRLSCAASGFTFDDYALGWFRQAAGKEREGVSCIRCSDGSTYYADSVKGRFTISSDNAKNTVYLQMNSLKPEDTAVYYCAASIVPRSKLEPYEYDAWGQGTQVTVSS
B2: VHH 37F02 (VHH, not shown: small tags and cut ends)
VHH: EVQLVESGGGLVQPGGSLRLSCAASGFALDYYAIGWFRQAPGKEREGVSCISSSDGITYYVDSVKGRFTISRDNAKNTVYLQMNSLKPEDTAVYYCATDSGGYIDYDCMGLGYDYWGQGTQVTVSS
B3: VHH 00027 (VHH, not shown: small tags and cut ends)
VHH: EVQLVESGGGLVQAGGSLRLSCAASGFTLDDYAIGWFRQAPGKEREGVSSIRDNDGSTYYADSVKGRFTISSDNDKNTVYLQMNSLKPEDTAVYYCAAVPAGRLRFGEQWYPLYEYDAWGQGTLVTVSS
B4: VHH 00042 (VHH, not shown: small tags and cut ends)
VHH: B3 VHH with A14P, D75S, K87R
B5: VHH 28D10 (VHH, not shown: small tags and cut ends)
VHH: B3 VHH with S50C, N54S, L124Q
B6: VHH 00055 (VHH, not shown: small tags and cut ends)
VHH: B3 VHH with D55G
B7: VHH 11B07 (VHH, not shown: small tags and cut ends)
VHH: EVQLVESGGGLVQVGDSLRLSCAASGRTFSTYLMVGWFRQAPGKEREFAAGIWSSGDTAYADSVRGRFTISRDNAKNTVYLQMNSLKTEDTAVYYCAGSYDGNYYIPGFYKDWGQGTQVTVSS
B8: VHH 7G08 (VHH, not shown: small tags and cut ends)
VHH: B2 VHH with A40V
B9: VHH 24B05 (VHH, not shown: small tags and cut ends)
VHH: EVQLVESGGGLVQPGGSLRLSCAASGFTLDYYAIGWFRQAPGKEWEGVSCISSSDGSTYYADSVKGRFTISRDNAKNTVYLQMNSLKPEDTAVYYCATDSIVCGSYYGMDYWGKGTQVTVSS
B10: VHH 13A02 (VHH, not shown: small tags and cut ends)
VHH: EVQLVESGGGLVQAGGSLRLSCAASGGTFSSYSMGWFRQAPGKEREFIAAINWNGDSTYYEDSVKGRFTVSRDNAKNTVYLQMNSLKPEDTAVYYCAATGWGRAYEQAYEYDVWGQGTQVTVSS
B11: VHH 25F01 (VHH, not shown: small tags and cut ends)
VHH: EVQLVESGGGLVQAGGSLRLSCAVSGLPFDDYVIGWFRQAPGKEREGVSCISSSDGSTYYADSVKGRFTISSDNAKNTVYLQMNSLKPEDTAAYYCAAGGPRINIATMTCSHDEYEYDYWGQGTQVTVSS
B12: VHH 32H10 (VHH, not shown: small tags and cut ends)
VHH: EVQLVESGGGLVQAGGSLRLSCAASGFDFEDYDMGWFRQAPGKEREGVSYISSSDGSTYYTDSVKGRFTISSDNAKNTVYLQMNSLIPEDTAVYYCAARPWTRRVYGSSWLARSLDEYEYDYWGQGTQVTVSS
B13: VHH 37A09 (VHH, not shown: small tags and cut ends)
VHH: B2 VHH with V5M, A40V, E89G
B14: VHH 25D08 (VHH, not shown: small tags and cut ends)
VHH: EVQLVESGGGLVQAGGSLRLSCAASGFTFDDYAIGWFRQAPGKDLEGVSCISSSDGSTYYADSVKGRFTISSDNAKNTVYLQMNSLKPEDTAVYYCAAVNGLGPFSVPVPVYDFWGQGTQVTVSS
B15: VHH 29B08 (VHH, not shown: small tags and cut ends)
VHH: EVQLVESGGGVVQAGDSVRLSCAASGPTFRSYTMAWFRQTPGKERDIVAAISSSLGRTYYADSVKGRFQILRDNAKETVWLQMNSLKPEDTAVYICAASRSLNLAYTTKPYDYWGQGTQVTVSS
B16: VHH 25G04 (VHH, not shown: small tags and cut ends)
VHH: EVQLVESGGGLVQPGGSLRLSCAASGFTFGSYDMSWVRQAPGKGPEWVSAINSRGGSTYYADSVKGRFTISRDNAKNTLYLQMNSLKPEDTAVYYCATDPYSLSYYGYPLYDYWGQGTQVTVSS
B17: VHH 12A08 (VHH, not shown: small tags and cut ends)
VHH: EVQLVESGRGLVQAGGSLRLSCAASGSIFSINAMLWYRQAPGKQRELVAAITSGGSTNYADSVKGRFTISRDNAKNTVYLQMNSLKPEDTAVYYCAADSDYSSDYYYWGQGTQVTVSS
B18: VHH 14A08 (VHH, not shown: small tags and cut ends)
VHH: EVQLVESGGGLVQAGGSLRLSCASSGFTFDDYAIGWFRQAPGKEREGVSCISSSDGSTYYADSVKGRFTISSDNAKNTVYLQMNSLKPEDTAVYYCAARPPFHSCSEYENDYWGQGTQVTVSS

The IC50 is the concentration that gives 50% inhibition. Lower therefore signals inhibition by little substance.

Residue numbers refer to the chain shown, from its start. Where only a bound is given, the exact number is not on record here.

FLAG-tagged human Ang2 (human), sequence (O15123 19-496): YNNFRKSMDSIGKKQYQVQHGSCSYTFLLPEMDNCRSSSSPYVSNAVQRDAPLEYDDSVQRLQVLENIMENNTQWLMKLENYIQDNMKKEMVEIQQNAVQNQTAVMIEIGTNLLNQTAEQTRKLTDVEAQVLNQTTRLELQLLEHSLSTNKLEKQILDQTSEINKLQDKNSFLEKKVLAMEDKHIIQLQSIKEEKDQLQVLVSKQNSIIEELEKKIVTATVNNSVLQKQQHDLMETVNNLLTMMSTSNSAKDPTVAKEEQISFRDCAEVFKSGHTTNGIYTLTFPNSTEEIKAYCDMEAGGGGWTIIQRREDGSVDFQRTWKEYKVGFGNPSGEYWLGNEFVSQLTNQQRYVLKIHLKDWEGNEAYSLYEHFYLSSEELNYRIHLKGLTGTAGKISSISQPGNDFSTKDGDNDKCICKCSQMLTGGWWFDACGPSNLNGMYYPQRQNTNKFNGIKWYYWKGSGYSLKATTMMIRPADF
FLAG-tagged recombinant human Ang1 (human), sequence (Q15389 20-498 limits assumed): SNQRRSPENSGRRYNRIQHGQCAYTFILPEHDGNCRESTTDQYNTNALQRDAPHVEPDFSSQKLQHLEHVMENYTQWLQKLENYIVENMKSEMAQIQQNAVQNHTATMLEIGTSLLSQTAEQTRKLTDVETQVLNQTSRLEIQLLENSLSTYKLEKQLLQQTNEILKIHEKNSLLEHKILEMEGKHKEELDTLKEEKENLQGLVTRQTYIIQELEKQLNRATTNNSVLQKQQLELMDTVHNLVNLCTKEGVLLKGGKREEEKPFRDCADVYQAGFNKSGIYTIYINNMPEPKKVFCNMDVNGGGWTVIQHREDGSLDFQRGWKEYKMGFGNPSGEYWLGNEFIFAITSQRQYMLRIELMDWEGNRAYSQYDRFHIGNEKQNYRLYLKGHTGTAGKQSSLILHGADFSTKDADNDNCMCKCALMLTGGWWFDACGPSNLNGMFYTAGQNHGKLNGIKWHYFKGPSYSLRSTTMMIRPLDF

The first experiment has as its target FLAG-tagged human Ang2 (human) (UniProt O15123). As to the kind of experiment: competition ELISA: FLAG-hAng2 binding to coated hTie2-Fc.
With B1, the IC50 is 6.6 nM.
Take B2: the IC50 was found to be 0.077 nM.
As to B3, the IC50 came to 0.672 nM.
B4 had an IC50 of 0.646 nM.

Another experiment shares this target. The experiment is described as above. The source holds these as a separate data set.
Take B5: the IC50 came out at 1.8 nM.
B3 displayed an IC50 of 0.7 nM.
In turn, B4 had an IC50 of 0.7 nM.
Take B6: the IC50 is 1.8 nM.

Another experiment has as its target FLAG tagged human Ang2 (Alexis Biochemicals) (human) (UniProt O15123). As to the kind of experiment: competition ELISA, FLAG-hAng2 (0.02 nM) on coated hTie2/Fc. (In general: ELISA stands for enzyme-linked immunosorbent assay.)
B7 returned an IC50 of 5.4 nM.
For the molecule B1, the IC50 amounted to 3.4 nM.
Consider B8, for which the IC50 worked out at 0.07 nM.
Same read-out and setting: the value for B9 was 1 nM.
B10 returned an IC50 of 4.1 nM.
In turn, B11 showed an IC50 of 6.5 nM.

A further experiment has the same target. The experiment is described as above. The source holds these as a separate data set.
For B7, the IC50 is 14 nM.
Molecule B12 gave an IC50 of 4 nM.
The molecule B1 had an IC50 of 6.2 nM.
On to B8, for which the IC50 was determined as 0.04 nM.
Molecule B13 registered an IC50 of 0.1 nM.
Same read-out and setting: the value for B2 was 0.08 nM; that for B9 was 1.1 nM.
With B5, the concentration for half-maximal inhibition (IC50) was found to be 1.3 nM.
Consider B10, for which the half-maximal inhibitory concentration (IC50) stood at 23 nM.

In a further experiment the target is FLAG-tagged recombinant human Ang1 (Alexis Biochemicals) (human) (UniProt Q15389). As to the kind of experiment: competition ELISA, periplasmic extract, FLAG-hAng1 on hTie2/Fc.
FLAG-tagged recombinant human Ang1 (Alexis Biochemicals) (human), sequence (Q15389 20-498 limits assumed): as above
For B12, the % inh amounted to 17%.
Still for that read-out and setting: the value for B14 was 10%; that for B11 was 14%.

Another experiment has as its target FLAG tagged human Ang2 (Alexis Biochemicals) (human) (UniProt O15123). As to the kind of experiment: competition ELISA, periplasmic extract, FLAG-hAng2 on hTie2/Fc.
B12 had a % inh of 112%.
Turning to B14, the % inh is 94%.
As for B9, the % inh came to 102%.
The molecule B15 yielded a % inh of 112%.
Regarding B16, the % inh turned out to be 87%.
With B5, the % inh came out at 118%.
B17 gave a % inh of 0%.
In turn, B10 had a % inh of 96%.
On the same count and under the same terms, as for B11, the figure is 85%.

For a further experiment, the target named is N-terminally FLAG-tagged mouse Ang2 (HEK293T conditioned medium) (mouse) (UniProt O35608). The experiment can be described thus: competition ELISA, periplasmic extract, FLAG-mAng2 on mTie2/Fc.
N-terminally FLAG-tagged mouse Ang2 (HEK293T conditioned medium) (mouse), sequence (O35608 19-496 limits assumed): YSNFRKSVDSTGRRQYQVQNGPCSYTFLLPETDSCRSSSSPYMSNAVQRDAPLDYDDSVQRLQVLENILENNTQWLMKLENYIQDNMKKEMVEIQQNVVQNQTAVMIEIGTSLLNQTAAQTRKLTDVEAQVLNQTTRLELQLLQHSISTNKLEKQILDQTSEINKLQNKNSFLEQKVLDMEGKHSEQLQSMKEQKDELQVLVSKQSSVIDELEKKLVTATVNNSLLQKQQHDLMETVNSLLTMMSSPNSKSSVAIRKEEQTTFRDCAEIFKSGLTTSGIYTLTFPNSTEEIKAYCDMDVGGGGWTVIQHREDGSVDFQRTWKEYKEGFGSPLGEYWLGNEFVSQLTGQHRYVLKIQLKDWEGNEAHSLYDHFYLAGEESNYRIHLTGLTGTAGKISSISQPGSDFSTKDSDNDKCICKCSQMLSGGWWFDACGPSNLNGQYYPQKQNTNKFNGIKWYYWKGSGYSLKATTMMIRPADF
B14 registered a % inh of 6%.
Molecule B15 registered a % inh of 63%.
The molecule B16 displayed a % inh of 9%.
With B17, the % inh was 2%.
In the case of B18, the % inh is 4%.

The next experiment concerns the target FLAG-tagged recombinant human Ang1 (human) (UniProt Q15389). As to the kind of experiment: ratio of IC50s in hAng1/hTie2 and hAng2/hTie2 competition ELISA.
With B2, the hAng1/hAng2 IC50 ratio is over 130000 and the hAng1/hAng2 ratio was over 130000.
Consider B5, for which the hAng1/hAng2 ratio is over 5680.

The next experiment deals with FLAG tagged human Ang2 (Alexis Biochemicals) (human) (UniProt O15123). As to the kind of experiment: AlphaScreen competition, periplasmic extract, FLAG-hAng2 / biotin-hTie2/Fc.
FLAG tagged human Ang2 (Alexis Biochemicals) (human), sequence (O15123 19-496): as the sequence (O15123 19-496) above
Turning to B12, the % inh was 55%.
B14 displayed a % inh of 78%.
Turning to B9, the % inh was determined as 97%.
Consider B15, for which the % inh worked out at 60%.
B16 displayed a % inh of 90%.
The molecule B5 yielded a % inh of 89%.
B17 registered a % inh of 98%.
Consider B10, for which the % inh was found to be 91%.
Molecule B11 yielded a % inh of 67%.
B18 registered a % inh of 52%.

The record behind these values is patent US20230203146A1.
